Experimental findings from patent US20100055121A1 (US Dept. of Health and Human Services, published 2010) are described below.

Assay [1] concerns the target T1, HLA-A0201 molecules on T2 (HLA-A2+) cells (human).
T1 construct: whole, on cells; MHC class I molecule on T2 cells; also called HLA-A2.1
Put plainly: T2 cells loaded with 25 µM peptide, brefeldin A chase, HLA-A02 flow cytometry over time. As for the experimental part:
(§1) HLA-A2 binding assay. […] T2 cells (1×10⁶) in serum-free Iscove's modified Dulbecco's medium were incubated in the presence of various concentrations of each peptide, in 24-well culture plates at 37° C. with 5% CO₂. After 18 hours in culture, T2 cells were harvested, washed with 1× phosphate buffered saline (PBS) (Invitrogen) and stained with 20 μl of a FITC-conjugated anti-HLA-A02-specific monoclonal antibody (MAb) (One Lambda, Inc., Canoga Park, Calif.). A FITC-conjugated IgG2a MAb (BD Biosciences, San Jose, Calif.) was used as an isotype control. Data acquisition and analysis were conducted on a FACSCalibur™ system using the CELLQueSt™ software (BD Biosciences). Results were expressed as mean fluorescence intensity (MFI) collected on a log scale. […] Assuming first order kinetics, the log₂ of MFI/MFI₀ (MFI is the fluorescence at each time point and MFI₀ the initial fluorescence at time 0) was plotted against time (minutes). The decay rate constant was calculated as the slope of the linear regression for each curve and the half-life of each peptide-MHC complex was calculated as […].
In silico-predicted epitopes were then assessed for binding to the MHC molecules in a cell-based assay. TAP-deficient T2 (HLA-A2+) cells were incubated in the presence of 25 μM of each peptide and subsequently tested for cell surface MHC-stabilization by bound peptides.
(A flow cytometer gives signals particle by particle.)

Assay [2] concerns the target T1, HLA-A0201 molecules on T2 (HLA-A2+) …. Briefly: T2 cell surface HLA-A02 stabilisation, flow cytometry, 25 µM peptide. As to the method:
as §1
In silico-predicted epitopes were then assessed for binding to the MHC molecules in a cell-based assay. […]

B1: Brachyury peptide T-p2 (peptide)
peptide: WLLPGTSTL
notes: Synthesized at >90% purity
In the case of B1, the “half-life of MHC-peptide complex” value in assay [1] stood at 8.57 h.

B2: Brachyury peptide T-p3 (peptide)
peptide: RLIASWTPV
notes: Synthesized at >90% purity
For the molecule B2, the “half-life of MHC-peptide complex” value in assay [1] was 3.75 h.

B3: Brachyury peptide T-p1 (peptide)
peptide: SQYPSLWSV
For B3, the binding result in assay [2] is “binds”.

B4: Brachyury peptide T-p4 (peptide)
peptide: AMYSFLLDFV
notes: Synthesized at >90% purity
On to B4, for which the “half-life of MHC-peptide complex” value in assay [1] was 5.2 h.
